This is an account of results in the DeepSol protein solubility set.

The nature of the series: soluble on expression in E. coli; label from the status in PepcDB or PDB records.
Turning to “MSLAMRFMLLLMLVGMAHGALANPLRVCVGDVNVWPPFTYWQGSSAQEKAESLTGSATTLVLEALKKQEIEYQLHFMPWARVQQELAQATGRCDLTWDASYRAERAEYSYFSVPLYTIQLGYFTLPENSKDLNLATDSDVLCGVNGFNYQNFALPREPSLTLNSVQQALNMLQKERCDWFVSEIEPIYGGIMLGLYQLDRPIQHHFLGKTKEYHVQVRRSLPNAMPLLNGLNEYILQAQSSGHAQAVFDRFLSITQTEGHHHHHH”, the “soluble on expression in E. coli” value is listed as “soluble”.
As for “MNTISGTHFNYHQVCRRKLWLFSAGITMEHTSDLVYEGKLIHETTYQQRPERYQELELDGIKIDFYDAKNRVVHEVKKSNKISPAHRLQLLYYLYVLERNGVLGATGILEYPTLRKKEEVILSDIDRERIREIEQEILQIISHEDCPPVIDSGICKNCSYYEFCFSGEEQ”, the “soluble on expression in E. coli” value is recorded as “not soluble”.
For “MGSDKIHHHHHHMNPDFSYEKKKIEFSSGYIFKGKHYRCSIIKYASLYKNCTKGTENVEIYHFSPRERSVGSILILHGLGTVNIPFLFWMGSHLASAGLQASVMILPGNYTRTASGSTSGKDFFSPDLRRLTAFWEQAVVDTMTTIDLLQQENIWWDNNCLFGYCLGGMVSTIVSAIDKRINDLILMTVGGNIAKIIWQSPVLKSIRLSLRSGSGEEGYLNDEKRLNARFKEDSLAVKKMKSASELLESDLHPLFKIDPLAYARFNDSEKVTMIEALFDKALPVQTRKQLWEAFGRPKRYIVPIGHVSWFPFEYALGKYILKKLGIKEARKKMRLLESTKPTE”, the “soluble on expression in E. coli” value is on record as “not soluble”.
For “MSRIVNVKLSLKRYEYEKPFHITGSVSSESRNVEVEIVLESGVKGYGEASPSFRVNGERVEALLAIENAVREMITGIDVRNYARIFEITDRLFGFPSLKAAVQFATLDALSQELGTQVCYLLGGKRDEIETDKTVGIDTVENRVKEAKKIFEEGFRVIKIKVGENLKEDIEAVEEIAKVTRGAKYIVDANMGYTQKEAVEFARAVYQKGIDIAVYEQPVRREDIEGLKFVRFHSPFPVAADESARTKFDVMRLVKEEAVDYVNIKLMKSGISDALAIVEIAESSGLKLMIGCMGESSLGINQSVHFALGTGAFEFHDLDSHLMLKEEVFRGKFIQDGPRMRVKDQ”, the “soluble on expression in E. coli” value was “soluble”.
The entry for “MVAHQKADFKSKWAMVVTVNNLNDKKRADLREFSEWFIETLRLEGAFIGHYFNYEAAPVTIVETLPGNFDSCTNAYQKIHKEHPQVVLVVHILPQSQSNEYEWMKVLASRYGFVRQGLLYDNCANRFQNVETDQNSVFRNMCQWIYRSGTAIVRNEGNACGILHGKDPKPTFDKVLFNSEDIKDSVFKVLHAEEEPRGADQENMLKISGYPGMLNTFGIAQLLTPYRVNGITITGAQSAVVALENKFQVYQAVQDFNGKKLDRNHKLQVSSLVVSSPAVPLEWPSLKKSKKLVEQVGKPIRLSKVSS” is “not soluble”; for “MTTAAEIITVEKLNDFDYKVALQQQMVAAQNGAAAAVLRPHQIGSSPEAPQSQTSGGSTEQLQQQPLPPPTQQKQQQPLTIGPVAPNDRSTSSSSTDGPRRLHVSNIPFKYREPDLTAMFEKVGPVVDVEIIFNERGSKGFGFVTMQNPDDADRARAEFNGTTIEGRRVEVNLATQRVHNKKAKPLMSVGVDAMSAQNALISQQQQIQRAALLQQQLLAQQFLVPRHQQLMMPPTSAAAISQLQALQYQQALLAAQQQQQQMQNPQFLLSLQQQQQAQAQAPPTSMAQLIQHQQQFAMDPMAQAQAQAAQAQMVTLIAFEQQRMQLQAAAAAAQGRGVPQPGRIPTSTATTGSSQNQVAAGSIGEQYLQQSMQGAVPANFHHHSQALHPAAAAAAALQRRFAPY” it is “not soluble”; for “MAFICPEEIEAYAEEHSSELHPILEELVEFTYKNTDLPQMMVGRAEGNFLKMLVEISGAKRVLEIGTFTGFSALMMAQGLPEDGKLTTIEVNPEYAQMAKSFIERAPWGKKIEVIVGDARKVLEEFKKESFDFIFIDADKSSYPYYYEKCLELLKKGRLMAIDNALWEGKVLEPDDNRSKAIARMNEMIKEDPRVEKVLLTVRDGIFLVRKI” it is “soluble”.
Consider “MVGLLVEDTIDDQGWNRKAYEGLLNIHSNLDVDVVLEEGVNSEQKAHRRIKELVDGGVNLIFGHGHAFAEYFSTIHNQYPDVHFVSFNGEVKGENITSLHFEGYAMGYFGGMVAASMSETHKVGVIAAFPWQPEVEGFVDGAKYMNESEAFVRYVGEWTDADKALELFQELQKEQVDVFYPAGDGYHVPVVEAIKDQGDFAIGYVGDQADLGGSTILTSTVQHVDDLYVLVAKRFQEGKLESGNLYYDFQDGVVSLGEFSSVVPDEVREQITDAISTYIQTGQFPHEEER”, for which the “soluble on expression in E. coli” value is given as “soluble”.
“SLTPDSTAGSLHIDCPTGLAGDMLLAALLDLGVPLEVIKAPLARLGLKDMVRLDVEETRSGGLRGRRLNVVGLEPDPPHRHWAEIRDRLQNSSLEPKLLQTVLAVFTALAEAEATVHAQTPESVHFHEVGAIDALVDVVGVCAAIHHLAPHRISCAPPPAGHGSVTTAHGLLPVPVPAVLELARAHQVPLRHDPSLPEGELTTPTGLALVSVLAERFTAPPLFTPSAIGIGLGHRRLDRPNLVRLCLGQGESATLDLEARWQPLVVQEAWIDDASAEDIAWLLDRLRQAGALDVACQSLLMKKGRAGVAVTALVSTEQAPQLRRTWFEAGPSIGLRERQQGRWLLPRRAGTLSTPWGVLTAKQVRRPDGHCTVKPEADALQRLSQASGCSVADLRAAAQAASFESEEPWTW”: the “soluble on expression in E. coli” value is “not soluble”.
The result for “MSLKGDHAGKDRLIYKLQQTDSSYRYTNGTQGTAWTLIMENPLKGYGYGDDIYHAIYNKRVVDFPSWKFRQSIGPHNEGHHHHHH” reads “soluble”.
The result for “PLQEERLQRLQDRMVVPFDETRPDHQESLKALWNVAFPNVHLTGLVTEQWKEMGWQGPNPSTDFRGCGFIALENLLFSARTYPVNYSLLLKQRGDRAKWEYPFAVAGINISFMLIQMLDLQNNQDERAFDVLYCIAFAMMDAQWLAMHASYMEFNEVLQATRNQLERELSLDDIHRIQDLPAYNLLFQ” reads “not soluble”.
Consider “MGSDKIHHHHHHVLSTANITMQFGPKPLFENISVKFGGGNRYGLIGANGCGKSTFMKILGGDLEPSSGNVMLEPNIRLGKLRQDQFAYEDVRVLDVVMMGHAEMWAAMTERDAIYANPDATDDDYMHAAELEAKFAEYDGYTAEARAGELLLGIGIAIENHNGPMSNVAPGWKLRVLLAQALFSKPDVLLLDEPTNNLDINSIRWLEDVLNQYNSTMIIISHDRHFLNQVCTHMADMDFGTLKVYPGNYDDYMLASTQARERQQNANAKAKERVADLQDFVRRFSANKSKARQATSRLKMIDKIKIEEFKPSSRQNPFIRFEYEKKLHNIAVVAEKISKKYERTIFNDFSISVQPGERIAIIGENGAGKTTLLRSLLGKLELDHGTVKWAENANIGYMPQDTYEEFPDDVTLMEWIDVYRKEGDDEQMVRGTLGRLLFNADDIRKSVKVLSGGEKGRMIWGKLMLGRHNVLLMDEPTNHMDMESIESLQIALDKFEGTLIFVSHDREFVSGLANRIIEVKTDGTLNDFGGNYEDFLLSQGVQ”, for which the “soluble on expression in E. coli” value is listed as “not soluble”.
Turning to “MGSDKIHHHHHHMPRLLLVTNDFPPTVGGIQSYLRDFVALLPPEDVVVFASTQDPVAAREFDKSVPYKVVRYSSKLMLPTPQVKKLMVDLIKSEGVSTVWFGAAAPLAVMAPAARAAGAIQIISTTHGHEVGWSMVPGARSVLRFIGQHSDVVTYISDYTLRRFRRAFGEHPKFVHLPSGVDVERFYPVDEKQKFELRDQLGWAEKDKVIVCTSRLVPRKGQDTLIKAFPEIVQRCSEARLVIVGEGRIEGKLRRLAARDQKASSRISFEGRVSEEKMGMMLRGADVFAMPCRTRGGGLDVEGLGIVFLEAQACGVPVIAGDSGGAPETVTPASGVVVNGRDSSSVAHVIVDLVQQPAALMSMGHAGRQHVVDHWTWEIMGARLKSLIL”, the “soluble on expression in E. coli” value is listed as “not soluble”.
As for “MRSMTDVRRYWISLLRKICEMPLELCASDRLKKSMPVEGKKSEERRKFTHLELLGRIFCGISPFLELNRESPSTDPEERKIATRLSEFAVKSLDVATNPNCKDYMNFKEGRQPLVDAAFLVEAILRAPKVLWEDLDVSTKKRLIRELKATRKIEPYFSNWLLFSAMIETFFFFAGEEWDSTKVDLILKNVESWYKGDGAYGDGPFFRWDYYNSFVIYPMTIDVLRIISEEKTEWKELYVKVLRRAQRYAVVLERMISPEGTFPIIGRSITYRTAVFHLLSQLSLLHLLPASLSPAQVRCALTAVLRRIFENPSTFDENGWLKIGVIGSQPSLGEEYITTGSLYLCTTVFLPLGLPTSDPFWRDPCKKWTNKKVWEGEDVAPDRALEDLEHHHHHH”, the “soluble on expression in E. coli” value was “soluble”.
“MSLNNKVLVTGGTGFVGMRIISRLLEQGYEVQTTIRDLSKADKVIKTMQDNGISTERLMFVEADLSQDEHWDEAMKDCKYVLSVASPVFFGKTDDAEVMAKPAIEGIQRILRAAEHAGVKRVVMTANFGAVGFSNKDKNSITNESHWTNEDEPGLSVYEKSKLLAEKAAWDFVENENTIVEFATINPVAIFGPSLDAHVSGSFHLLENLLNGSMKRVPQIPLNVVDVRDVAELHILAMTNEQANGKRFIATADGQINLLEIAKLIKEKRPEIAQKVSTKKLPDFILSLGAKFNHQAKEGKLLLDMNRNVSNERAKTLLGWEPIATQEEAILAAIDSMAKFHLIEGHHHHHH”: the “soluble on expression in E. coli” value is recorded as “soluble”.
Turning to “MGSDKIHHHHHHMKTNNSPISLLQTQNNTYNVLNNIKVHVEVRDNPYNLELDNLFQMAARINKKRSFLFVSTILGKHLPIKPAVSLASGFALAARYMEILHNTFHPFQKEILNLISLEVDEIPEEIFHYQYPLPEEVLFIGFAETATALGHSMFQCFQNAKYVHTTRESIPNLESVITFEEEHSHATSHRCYVDKSFFQNNNPIILVDDEMTTGKTALNIIRSIQQQFPREEYTIASLLDWRSNTNRRQFKQLEEELQIKIHVISLLEGRIHTTGQPLNITKTDTHIEETKPYFKKHTIICPALSYTSNYIKYTGRFGISSYEQKHIHSFAQEAGKMLQRKRIGKRTLCLGTGEFMYIPMKIAAEMGENILYQSTTRSPIHPVSNDVNYAIHNHFSYPNPEDSTITNYFYNISPHEYDEVFVFMERDVGEEALSPLLQHLQTVIPCIHIVSFSNSIEKEG”, the “soluble on expression in E. coli” value was “not soluble”.
Consider “MAVVPIRIVGDPVLHTATTPVTVAADGSLPADLAQLIATMYDTMDAANGVGLAANQIGCSLRLFVYDCAADRAMTARRRGVVINPVLETSEIPETMPDPDTDDEGCLSVPGESFPTGRAKWARVTGLDADGSPVSIEGTGLFARMLQHETGHLDGFLYLDRLIGRYARNAKRAVKSHGWGVPGLSWLPGEDPDPFGH”, for which the “soluble on expression in E. coli” value is given as “soluble”.
Regarding “MADFDTNPTSLYSIKGIVILDQDGNRVLAKYYDRTTFGTVKEQKAFEKSLFSKTSRNTSADILLLDGVTCLYRSNVDLYFYVLGSTRENELFLDATLTCLYDAVSVVLRKNVEKKALIDSMDTIMLIIDEICDEGIIMETDAQAVVQRTALKSDEVSFSDQSVSQIGFSFMKSANEQFKWSLLK”, the “soluble on expression in E. coli” value is “not soluble”.
“MGSDKIHHHHHHMFTVMDIVQPDTVEEAYSILNKRKTNQVIGGSAFLRMGKKRIGTGIELSKLNLDYIKEYEDYVEIGSMTTFRTLETSSIIKNNFGRIIEDSVKNIIGVQFRNVVTVGATVFSKYGFSDLIVALLSLDTEVELYNIGRISLEEFLNRDYEKDLLIKIYIKKTNKNASYKSLRNAKSDYPILNVSVSKHMEQFKLCVGARPQKATIAKQASEFLSNNEINEINIDKAVEIASEELTFGSNMRASREYRKAMSKVLLKRAIMEVI”: the “soluble on expression in E. coli” value is recorded as “not soluble”.
The entry for “DMSKVNLEVIKPWITKRVTEILGFEDDVVIEFIFNQLEVKNPDSKMMQINLTGFLNGKNAREFMGELWPLLLSAQENIAGIPSAFLELKK” is “not soluble”.
